T1: LMP2 (Epstein-Barr virus latent membrane protein 2) peptide on HLA-A*24:02 (human)
T1 peptide: IYVLVMLVL

T2: WT1 (modified form of the WT1 peptide) peptide on HLA-A*24:02 (human)
T2 peptide: CYTWNQMNL

B1: TCR of clone LMP2#1 (TCR)
alpha TRAV26-1*01 TRAJ34*01 CDR3: CIVTRFYTDKLIF
beta TRBV14*02 TRBJ2-1*01 CDR3: CASSSPGSRPYNEQFF
B2: TCR of clone WT1#3-3 (TCR)
alpha TRAV12-1*01 TRAJ9*01 CDR3: CVVRGGGFKTIF
beta TRBV20-1*01 TRBJ2-6*01 CDR3: CSARAGTGGANVLTF

Legend:
[1] = molecular target: T1, LMP2 (Epstein-Barr virus latent …); experiment: multimer staining
[2] = molecular target: T2, WT1 (modified form of the WT1 peptide) …; experiment: killing

Binder	binding result [1]	binding result [2]
B1	recognises	–
B2	–	recognises

Source: US20170267972A1 (published 2017)
